Values of other authors as cited in publication PMC7821625.

Legend:
[1] = molecular target: fibronectin (Homo sapiens) (UniProt P02751)
[2] = molecular target: plasminogen (Homo sapiens) (UniProt P00747)
UniProt P00747, sequence (P00747 20-810): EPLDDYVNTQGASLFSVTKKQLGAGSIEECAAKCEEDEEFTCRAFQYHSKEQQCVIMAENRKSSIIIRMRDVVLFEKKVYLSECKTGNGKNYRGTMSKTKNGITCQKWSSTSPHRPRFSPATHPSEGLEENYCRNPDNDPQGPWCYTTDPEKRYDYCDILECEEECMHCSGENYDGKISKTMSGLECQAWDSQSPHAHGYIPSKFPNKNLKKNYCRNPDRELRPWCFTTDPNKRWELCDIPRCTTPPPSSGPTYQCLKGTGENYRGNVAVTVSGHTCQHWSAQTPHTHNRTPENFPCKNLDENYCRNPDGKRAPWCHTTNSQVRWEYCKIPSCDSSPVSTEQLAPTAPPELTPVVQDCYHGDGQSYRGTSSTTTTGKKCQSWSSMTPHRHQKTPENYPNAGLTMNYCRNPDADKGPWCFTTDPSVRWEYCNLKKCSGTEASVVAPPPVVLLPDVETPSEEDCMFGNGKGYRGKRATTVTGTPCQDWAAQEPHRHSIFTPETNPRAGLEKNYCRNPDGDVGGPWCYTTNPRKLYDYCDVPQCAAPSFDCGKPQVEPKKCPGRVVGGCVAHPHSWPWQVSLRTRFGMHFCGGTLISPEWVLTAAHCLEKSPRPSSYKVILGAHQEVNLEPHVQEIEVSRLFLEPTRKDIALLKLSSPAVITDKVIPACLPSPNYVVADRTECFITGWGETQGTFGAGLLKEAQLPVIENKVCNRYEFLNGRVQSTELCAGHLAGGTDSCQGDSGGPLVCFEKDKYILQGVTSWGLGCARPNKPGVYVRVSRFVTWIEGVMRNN

UniProt P02751, sequence (P02751 32-2477): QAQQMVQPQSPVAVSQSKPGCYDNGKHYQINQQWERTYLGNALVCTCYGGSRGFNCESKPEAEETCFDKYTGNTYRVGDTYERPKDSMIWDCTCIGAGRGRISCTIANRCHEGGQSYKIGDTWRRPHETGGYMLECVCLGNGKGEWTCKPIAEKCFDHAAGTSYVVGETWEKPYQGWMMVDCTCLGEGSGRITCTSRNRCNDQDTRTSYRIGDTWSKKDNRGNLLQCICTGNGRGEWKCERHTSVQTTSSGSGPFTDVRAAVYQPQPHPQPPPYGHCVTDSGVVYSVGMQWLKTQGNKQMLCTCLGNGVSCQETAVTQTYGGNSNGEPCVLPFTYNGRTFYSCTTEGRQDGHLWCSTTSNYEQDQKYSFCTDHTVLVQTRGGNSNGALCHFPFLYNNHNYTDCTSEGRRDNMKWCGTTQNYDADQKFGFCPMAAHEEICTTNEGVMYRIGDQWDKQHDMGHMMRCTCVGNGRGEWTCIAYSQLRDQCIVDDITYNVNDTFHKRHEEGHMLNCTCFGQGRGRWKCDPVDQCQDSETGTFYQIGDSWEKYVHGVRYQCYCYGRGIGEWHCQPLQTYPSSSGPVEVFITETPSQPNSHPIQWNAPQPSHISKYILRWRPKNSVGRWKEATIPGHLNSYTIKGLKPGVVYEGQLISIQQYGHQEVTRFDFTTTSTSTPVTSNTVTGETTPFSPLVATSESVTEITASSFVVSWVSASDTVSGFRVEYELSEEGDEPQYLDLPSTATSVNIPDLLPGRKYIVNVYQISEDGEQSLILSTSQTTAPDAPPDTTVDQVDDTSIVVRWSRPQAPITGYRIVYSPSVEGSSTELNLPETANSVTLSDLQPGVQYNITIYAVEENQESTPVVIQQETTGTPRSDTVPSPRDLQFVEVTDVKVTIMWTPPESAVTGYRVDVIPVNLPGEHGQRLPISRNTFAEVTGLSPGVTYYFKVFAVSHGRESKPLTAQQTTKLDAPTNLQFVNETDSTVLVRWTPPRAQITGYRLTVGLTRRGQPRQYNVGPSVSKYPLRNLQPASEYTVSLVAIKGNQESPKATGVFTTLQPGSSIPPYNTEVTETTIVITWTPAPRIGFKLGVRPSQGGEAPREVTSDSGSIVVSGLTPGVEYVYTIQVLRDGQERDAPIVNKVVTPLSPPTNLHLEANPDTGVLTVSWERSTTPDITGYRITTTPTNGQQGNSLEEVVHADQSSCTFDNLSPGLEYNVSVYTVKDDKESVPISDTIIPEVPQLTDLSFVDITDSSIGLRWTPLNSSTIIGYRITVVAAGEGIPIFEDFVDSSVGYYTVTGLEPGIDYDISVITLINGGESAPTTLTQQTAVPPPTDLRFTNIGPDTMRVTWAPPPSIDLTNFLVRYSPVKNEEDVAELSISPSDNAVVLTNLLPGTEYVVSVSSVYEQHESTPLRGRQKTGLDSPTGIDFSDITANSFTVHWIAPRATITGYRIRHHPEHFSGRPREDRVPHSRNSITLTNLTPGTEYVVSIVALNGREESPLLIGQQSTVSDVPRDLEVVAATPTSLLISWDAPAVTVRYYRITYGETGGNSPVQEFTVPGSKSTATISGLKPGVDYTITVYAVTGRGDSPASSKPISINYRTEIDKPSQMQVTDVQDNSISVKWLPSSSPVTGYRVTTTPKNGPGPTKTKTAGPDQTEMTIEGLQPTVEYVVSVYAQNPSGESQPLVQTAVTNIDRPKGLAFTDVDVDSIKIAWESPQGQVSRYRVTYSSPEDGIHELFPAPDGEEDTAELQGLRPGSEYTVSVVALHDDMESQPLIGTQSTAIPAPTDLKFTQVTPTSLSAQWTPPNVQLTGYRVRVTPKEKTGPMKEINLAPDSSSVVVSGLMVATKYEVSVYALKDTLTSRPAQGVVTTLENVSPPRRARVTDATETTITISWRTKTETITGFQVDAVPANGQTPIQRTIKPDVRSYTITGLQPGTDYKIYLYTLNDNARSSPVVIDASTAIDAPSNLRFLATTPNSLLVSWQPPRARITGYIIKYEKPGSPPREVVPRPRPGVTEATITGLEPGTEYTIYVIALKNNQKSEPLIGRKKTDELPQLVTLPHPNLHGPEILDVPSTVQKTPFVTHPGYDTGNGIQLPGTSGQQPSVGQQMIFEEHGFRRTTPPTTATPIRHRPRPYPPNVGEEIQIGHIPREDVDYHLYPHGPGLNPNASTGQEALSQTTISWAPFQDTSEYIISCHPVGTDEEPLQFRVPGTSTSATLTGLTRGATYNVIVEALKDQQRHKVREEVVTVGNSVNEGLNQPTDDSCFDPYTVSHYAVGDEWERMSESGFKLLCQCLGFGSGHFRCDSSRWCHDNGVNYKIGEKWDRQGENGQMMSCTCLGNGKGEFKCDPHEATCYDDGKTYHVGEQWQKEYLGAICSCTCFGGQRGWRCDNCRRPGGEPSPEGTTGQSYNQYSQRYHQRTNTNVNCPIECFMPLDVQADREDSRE

Substance: LigA LigA7'-13 (from UniProt Q72MA6)
- Kd [1]: 126 nM
- Kd [2]: 1200 nM
